Measured values reported in EP4792830A2 (Pfizer Inc., dated 2026).

T1: rabTFPI K1K2 (rabbit, limits assumed)
T1 construct: also called Rabbit TFPI K1K2
T1 chain: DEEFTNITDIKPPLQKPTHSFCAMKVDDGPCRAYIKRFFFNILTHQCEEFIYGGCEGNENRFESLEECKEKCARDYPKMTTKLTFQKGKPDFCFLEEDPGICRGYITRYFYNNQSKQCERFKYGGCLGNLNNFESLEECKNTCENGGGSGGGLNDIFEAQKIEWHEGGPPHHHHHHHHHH


Columns and labels:
rabTFPI K1K2 [1] = biological target: T1, rabTFPI K1K2; experiment: ELISA, TFPI on streptavidin plate
rabTFPI K1K2 [2] = biological target: T1, rabTFPI K1K2; experiment: SPR (summary table)
rabTFPI K1K2 [3] = biological target: T1, rabTFPI K1K2; experiment: SPR, antibody ligand, TFPI analyte
humTFPI K1K2 = biological target: T2, humTFPI K1K2 (human); experiment: SPR, antibody ligand, TFPI analyte
T2 construct: Biotinylated on the AviTag for ELISA; also called Human TFPI alpha K1K2; humTFPI K1K2-aviHis10

Binder	EC50 (rabTFPI K1K2 [1]) [nM]	Kd (rabTFPI K1K2 [2]) [nM]	Kd (rabTFPI K1K2 [3]) [nM]	further results
4D8-Vk1.1 x VH1.3 (antibody, human IgG1, kappa, V domains shown, Humanized 4D8 variant) VH: EVQLVESGGGLVQPGGSLRLSCAASGYTFTDYNLDWVRQAPGKGLEWVADINPINGATLYNQKFKGRATISRDNAKNSLYLQMNSLRAEDTAVYYCARYYGDYDAMDYWGQGTLVTVSS VL: DIQMTQSPSSLSASVGDRVTITCKASQDVHTAVAWYQQKPGKAPKLLIYWASTRHTGVPSRFSGSGSGTDYTLTISSLQPEDFATYYCQQHYTTPYTFGQGTKLEIKR	0.0511	–	–	–
4D8-Vk1.1 x VH1.1 (antibody, human IgG1, kappa, V domains shown, Humanized 4D8 variant) VH: EVQLVESGGGLVQPGGSLRLSCAASGYTFTDYNLDWVRQAPGKGLEWVGDINPINGATLYNQKFKGRATISVDQAKNSAYLQMNSLRAEDTAVYYCARYYGDYDAMDYWGQGTLVTVSS VL: DIQMTQSPSSLSASVGDRVTITCKASQDVHTAVAWYQQKPGKAPKLLIYWASTRHTGVPSRFSGSGSGTDYTLTISSLQPEDFATYYCQQHYTTPYTFGQGTKLEIKR	0.0788	–	–	–
hz4D8 (antibody, human IgG1, kappa, V domains shown, humanized, human IgG1 3M / kappa; also called 4D8-Vk1.1 x VH1.4; 4D8 Vk 1.1 x VH 1.4) VH: EVQLVESGGGLVQPGGSLRLSCAASGYTFTDYNLDWVRQAPGKGLEWVADINPINGATLYNQKFKGRFTISRDQAKNSLYLQMNSLRAEDTAVYYCARYYGDYDAMDYWGQGTLVTVSS VL: DIQMTQSPSSLSASVGDRVTITCKASQDVHTAVAWYQQKPGKAPKLLIYWASTRHTGVPSRFSGSGSGTDYTLTISSLQPEDFATYYCQQHYTTPYTFGQGTKLEIKR	0.0716	0.502	0.502	koff (rabTFPI K1K2 [3]): 0.0029 s⁻¹; kon (rabTFPI K1K2 [3]): 3.16e+06 M⁻¹ s⁻¹
4D8-Vk1.0 x VH1.2 (antibody, human IgG1, kappa, V domains shown, Humanized 4D8 variant) VH: EVQLVESGGGLVQPGGSLRLSCAASGYTFTDYNLDWVRQAPGKGLEWVGDINPINGATLYNQKFKGRFTISRDNAKNSLYLQMNSLRAEDTAVYYCARYYGDYDAMDYWGQGTLVTVSS VL: DIQMTQSPSSLSASVGDRVTITCKASQDVHTAVAWYQQKPGKAPKLLIYWASTRHTGVPSRFSGSGSGTDFTLTISSLQPEDFATYYCQQHYTTPYTFGQGTKLEIKR	0.0422	–	–	–
4D8-Vk1.1 x VH1.2 (antibody, human IgG1, kappa, V domains shown, Humanized 4D8 variant) VH: EVQLVESGGGLVQPGGSLRLSCAASGYTFTDYNLDWVRQAPGKGLEWVGDINPINGATLYNQKFKGRFTISRDNAKNSLYLQMNSLRAEDTAVYYCARYYGDYDAMDYWGQGTLVTVSS VL: DIQMTQSPSSLSASVGDRVTITCKASQDVHTAVAWYQQKPGKAPKLLIYWASTRHTGVPSRFSGSGSGTDYTLTISSLQPEDFATYYCQQHYTTPYTFGQGTKLEIKR	0.0783	–	–	–
4D8-Vk1.0 x VH1.4 (antibody, human IgG1, kappa, V domains shown, Humanized 4D8 variant) VH: EVQLVESGGGLVQPGGSLRLSCAASGYTFTDYNLDWVRQAPGKGLEWVADINPINGATLYNQKFKGRFTISRDQAKNSLYLQMNSLRAEDTAVYYCARYYGDYDAMDYWGQGTLVTVSS VL: DIQMTQSPSSLSASVGDRVTITCKASQDVHTAVAWYQQKPGKAPKLLIYWASTRHTGVPSRFSGSGSGTDFTLTISSLQPEDFATYYCQQHYTTPYTFGQGTKLEIKR	0.0426	–	–	–
TFPI-24 (antibody, human IgG1, lambda, V domains shown, Phage-derived, human IgG1-3M; also called mAb-TFPI-24; clone 24) VH: EVQLVESGGGSVQPGRSLRLSCAVSGLTIDNYAMQWVRQRPGKGLEWVSGISGNSRSIGYADSVKGRLTISRDNAKNSLYLQIDSLRADDTALYYCAIFLHESDYWGQGTLVTVSS VL: QSVLTQPPSVSGTPGQRVTISCSGSTSNIGTMYVHWYQHVPGTAPKLLIYRNNHRPSGVPDRFSGSKSGTSGSLAISGLRSEDEADYYCLAWDDTLRAYVFGTGTKVTVLG	–	–	–	Kd (humTFPI K1K2): 3.68 nM; koff (humTFPI K1K2): 0.00971 s⁻¹; kon (humTFPI K1K2): 918000 M⁻¹ s⁻¹
TFPI-118 (antibody, human IgG1, lambda, V domains shown, Germlined variant of TFPI-24: VL of TFPI-113 paired with VH of TFPI-108) VH: EVQLVESGGGLVQPGRSLRLSCAVSGLTIDNYAMQWVRQAPGKGLEWVSGISGNSRSIGYADSVKGRFTISRDNAKNSLYLQMNSLRAEDTALYYCAIFLHESDYWGQGTLVTVSS VL: QSVLTQPPSASGTPGQRVTISCSGSTSNIGTMYVHWYQQLPGTAPKLLIYRNNHRPSGVPDRFSGSKSGTSASLAISGLRSEDEADYYCLAWDDTLRAYVFGTGTKVTVLG	–	5.79	5.79	–
TFPI-106 (antibody, human IgG1, lambda, IgG1-3M) heavy: not shown light: QSVLTQPPSVSGAPGQRVTISCTGSSSNIGAGYDVHWYQQLPGTAPKLLIYGNSNRPSGVPDRFSGSKSGTSASLAITGLQAEDEADYYCQSYDSSLSGSGVFGGGTKLTVLGQPKAAPSVTLFPPSSEELQANKATLVCLISDFYPGAVTVAWKADSSPVKAGVETTTPSKQSNNKYAASSYLSLTPEQWKSHRSYSCQVTHEGSTVEKTVAPTECS	–	4.25	4.25	–
